Experiments:
[1] = biological target: MBP-PfAtg3 W105A (P. falciparum 3D7) (UniProt C0H519); assay: pull-down
[2] = biological target: MBP-PfAtg3 (P. falciparum 3D7) (UniProt C0H519); assay: SPR
[3] = biological target: MBP-PfAtg3 (P. falciparum 3D7) (UniProt C0H519); assay: pull-down

Substance	decrease of binding against wild type [1] [%]	Kd [2] [nM]	reduction of binding against wild type [3] [%]
His6-PfAtg8^CM (cysteine mutant C37I, C119S, C122S) (from UniProt Q8IJK2 1-124) (natural protein)	35	326	
His6-PfAtg8 with deletion of residues 68 to 76 (from UniProt Q8IJK2 1-124) (natural protein)			80
